Experimental data reported in US5851983A, “Elastase inhibitory polypeptide and process for production thereof by recombinant gene technology” (Teijin Limited, priority 1987, dated 1998).

Tests used:
[1] = biological target: T1, polymorphonuclear leucocyte elastase from human sputum (Homo sapiens, UniProt P08246); assay: Treatment with polymorphonuclear leucocyte elastase from human sputum (Examples 27, 30); format: in vitro ADME; details: 37° C.
T1 construct: Polymorphonuclear leukocyte elastase from human sputum (EPC Co; Funakoshi Yakuhin); purchased EPC Co. (via Funakoshi Yakuhin); host or cells: human sputum
T1 sequence (P08246 30-267): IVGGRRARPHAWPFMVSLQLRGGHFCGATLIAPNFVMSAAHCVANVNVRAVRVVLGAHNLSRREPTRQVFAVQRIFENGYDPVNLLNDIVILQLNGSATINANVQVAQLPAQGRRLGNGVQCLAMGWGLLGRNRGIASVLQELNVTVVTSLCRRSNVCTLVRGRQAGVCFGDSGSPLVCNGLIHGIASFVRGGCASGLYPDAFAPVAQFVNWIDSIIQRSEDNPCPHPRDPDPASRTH
Description: Polymorphonuclear leucocyte elastase from human sputum (EPC, Funakoshi Yakuhin) and SLPI were separately dissolved in a buffer (0.1M HEPES, 0.1M NaCl, 0.1% PEG 6000, pH 7.5) and the elastase solution was added to the SLPI solution, and the mixture was incubated at 37° C. Samples were taken as time elapsed, and to each sample were added Tris-HCl buffer (pH 6.8), SDS, 2-mercaptolethanol, glycerol, and Coomassie Brilliant Blue to final concentrations of 50 mM, 4 w/v %, 2 v/v %, 12 v/v % and 0.01 w/v % respectively. The mixture was subjected to SDS-polyacrylamide gel electrophoresis using Tricine (Sigma) as a polar buffer (Schagger, H., Anal. Biochem. 166, 368, 1987). After the electrophoresis, the gel was stained with Coomassie Brilliant Blue G-250, and decoloured with 50% (v/v) methanol/10% (v/v) acetic acid.
(1) A result of a test, wherein elastase was added to 100 μM SLPI to an elastase final concentration of 200 μM, and the mixture was incubated at 37° C. up to 192 hours taking samples as time elapsed, is shown in FIG. 20. […]
(3) Next, polypeptides thus generated were electrically transferred to a membrane (Immobilon-p^SQ Millipore) using a Milli Blot-SDE apparatus (Millipore). […] After drying, relevant bands were cut out, and the peptide was cleaved from the N-terminal using an Applied Biosystems Protein-Sequencer (Applied Biosystems; 477A), and after PTH-conversion, the resulting amino acid derivatives were analyzed by a PTH-Amino acid analyzer (Applied Biosystems, 120A) to determine the N-terminal amino acid sequence.
According to the same procedure as described in Example 27, (Asn^55 -Ala^107) SLPI (final concentration 100 μM) was treated with elastase (final concentration 200 μM) at 37° C. for 48 hours. The sample was separated by SDS-PAGE, and electrically transferred to a filter as described in Example 27, a band corresponding to a molecular weight of about 5,500 was cut out, and an N-terminal amino acid sequence was analyzed.

[2] = Partial hydrolysis with healthy human saliva (Examples 15, 16); format: in vitro ADME; details: 37° C.
Description: Healthy human saliva was filtered through a 0.22 μm filter (Milex GS, Milipore), and in the filtrate was dissolved 1 mg/ml of the SLPI prepared in Reference Example 1. The mixture was then incubated at 37° C. for 30 days. As a control, the SLPI was dissolved in physiological saline (Physisalz; Fuso Yakuhin Kogyo), and the mixture was incubated at 37° C. for 30 days.
With an elapse of time, samples were taken and to each sample were added a Tris-HCl buffer (pH 6.8), SDS, 2-mercaptoethamel and glycerol, to final concentration of 60 mM, 2% by weight, 4% by weight and 10% by weight, respectively, and the mixture was subjected to an SDS-PAGE (U.K. Laemmli, Nature, 227, 680, 1970). The gel after electrophoresis was stained with Coomussie Brilliant Blue.
Next, polypeptides in the polyacrylamide gel thus obtained were electrically transferred to a membrane (Immobilon; Milipore) using a Milli Blot-SDE apparatus. After the transfer, the membrane was stained with 0.1% by weight of Coomassie Blue in 40% by weight methanol/1% by weight acetic acid, and washed with water. Then, after air drying, the bands b, c, d and e were excised, and for each band, the PTH-amino acids were cleaved from the N-terminus with an Applied Biosystems Protein Sequences (Applied Biosystems; 470A) and analysed with a PTH analyser (Applied Biosystems, 120A) to determine an amino acid sequence for 10 amino acids from the N-terminus.
According to the same procedure as described in Example 15, (Asn^55 -Ala^107) SLPI prepared in Example 11 was treated with healthy human saliva at 37° C., and a result is shown in FIG. 13. […] After 12 hours, a new band g (MW about 5,500) appeared.
Next, according to the same procedure as described in Example 15, the band g was electrically transferred to a membrane and N-terminal amino acid sequence was analyzed. […] The 6th amino acid could not be determined. The N-terminal amino acid sequence of the band g corresponds to an amino acid sequence starting from Arg^59 of SLPI.

[3] = biological target: T2, Human plasma thrombin (Homo sapiens, UniProt P00734); assay: Assay for thrombin inhibitory activity (Example 25); format: biochemical; details: final concentration up to ×10^-5 M; enzyme 3 × 10^-9 M
T2 construct: (5) Human plasma thrombin (Kabi, Daiichi Kagaku Yakuhin); purchased Kabi (via Daiichi Kagaku Yakuhin); host or cells: human plasma
Description: F. Human plasma thrombin (Sigma)
Buffer: Buffer solution for each enzyme is as follow. Thrombin and FXa: 50 mM Tris-HCl, 7.5 mM EDTA-2Na, 175 mM NaCl (pH 8.4) […]
Substrate solution: for the enzymes F, G, H and I, the following substrate f, g, h or i, respectively, was dissolved to a final concentration shown in Table 14.
f. H.D-Phe-Pip-Arg-pNA (Kabi Vitrum)
To wells of an ELISA 96-well microtiter plate, were added a solution of (Arg^59 -Ala^107) SLPI obtained in Example 23 and then the enzyme solution, and the mixture was incubated at 37° C. for 10 minutes. Next, the substrate solution was added to develop the color, whose absorption was then measured at 405 nm. As a control, SLPI was used.

inhibitory activity to thrombin [3]: did not exhibit inhibitory activity
B1: SLPI: Human secretory leukoprotease inhibitor; recombinant SLPI of Reference Example 1 used as control (protein)
chain: SGKSFKAGVCPPKKSAQCLRYKKPECQSDWQCPGKKRCCPDTCGIKCLDPVDTPNPTRRKPGKCPVTYGQCLMLNPPNFCEMDGQCKRDLKCCMGMCGKSCVSPVKA
SDS-PAGE band of SLPI on treatment with elastase ([1]; 50 μM SLPI, not less than 100 μM elastase, one hour): disappeared significantly
SDS-PAGE band of SLPI on treatment with elastase ([1]; 100 μM SLPI, 200 μM elastase): rapidly disappeared after 45 minute incubation
selective cleavage sites with elastase from human sputum ([1]; N-terminal sequencing of SDS-PAGE bands): between Ser^15 -Ala^16, and Thr^57 -Arg^58
SDS-PAGE band of SLPI (MW about 13,000) during incubation in healthy human saliva ([2]; 1 mg/ml, up to 30 days): decreased as time elapid
SDS-PAGE band after incubation in physiological saline (control) ([2]; 30 days): maintained a band having an MW of about 13,000 during the incubation
cleavage sites in healthy human saliva ([2]; SDS-PAGE bands, N-terminal sequencing): between Arg^20 -Try^21, Arg^58 -Arg^59, Leu^72 -Met^73, and Met^73 -Leu^74
